Results on two molecules are retold here after paper PMC11700292, “Specific inhibition of fibroblast growth factor receptor 1 signaling by a DNA aptamer”.

Data set [1] addresses FGFR1b extracellular domain-Fc (human) (UniProt P11362). Nature of the data set: BLI. The following applies: BLI (Octet K2, protein A sensor, FGFR-Fc 5 ug/mL), VZ23 31.25-500 nM in PBS (8.1 mM Na2HPO4, 1.5 mM NaH2PO4, 137 mM NaCl, 2.7 mM KCl as given for NMR) with or …. For orientation: In BLI a coated tip is dipped into the sample, and binding shifts an interference pattern.

The target of data set [2] is T1, FGFR1c extracellular domain-Fc (human, UniProt P11362-1 22-376). The data set is described as follows: BLI; 2 mM Mg2+; BLI (Octet K2, protein A sensor, FGFR-Fc 5 ug/mL), VZ23 31.25-500 nM in PBS (8.1 mM Na2HPO4, 1.5 mM NaH2PO4, 137 mM NaCl, 2.7 mM KCl as given for NMR) with or without 2 mM MgCl2; pH 7.3 (stated for CD); temperature not stated. The following applies: protein: recombinant; tags: IgG1 Fc fusion; antiparallel G-quadruplex-like fold.

In data set [3] the target is T1, FGFR1c extracellular domain-Fc. The data set is described as follows: BLI; PBS, no Mg2+; BLI (Octet K2, protein A sensor, FGFR-Fc 5 ug/mL), VZ23 31.25-500 nM in PBS (8.1 mM Na2HPO4, 1.5 mM NaH2PO4, 137 mM NaCl, 2.7 mM KCl as given for NMR) with or without 2 mM MgCl2; pH 7.3 (stated for CD); temperature not stated. The following applies: protein: recombinant; tags: IgG1 Fc fusion; antiparallel G-quadruplex-like fold.

Data set [4] deals with FGFR2c extracellular domain-Fc (human, UniProt P21802 22-377). The data set is described as follows: BLI; BLI (Octet K2, protein A sensor, FGFR-Fc 5 ug/mL), VZ23 31.25-500 nM in PBS (8.1 mM Na2HPO4, 1.5 mM NaH2PO4, 137 mM NaCl, 2.7 mM KCl as given for NMR) with or without 2 mM MgCl2; pH 7.3 (stated for CD); temperature not stated. The following applies: protein: recombinant; tags: IgG1 Fc fusion; antiparallel G-quadruplex-like fold.

For data set [5], the target named is FGFR3c extracellular domain-Fc (human, UniProt P22607 23-375). The data set is described as above. The following applies: protein: recombinant; tags: IgG1 Fc fusion; antiparallel G-quadruplex-like fold.
The target in data set [6] is T2, FGFR4 extracellular domain-Fc (human, UniProt P22455 22-369).
T2 sequence: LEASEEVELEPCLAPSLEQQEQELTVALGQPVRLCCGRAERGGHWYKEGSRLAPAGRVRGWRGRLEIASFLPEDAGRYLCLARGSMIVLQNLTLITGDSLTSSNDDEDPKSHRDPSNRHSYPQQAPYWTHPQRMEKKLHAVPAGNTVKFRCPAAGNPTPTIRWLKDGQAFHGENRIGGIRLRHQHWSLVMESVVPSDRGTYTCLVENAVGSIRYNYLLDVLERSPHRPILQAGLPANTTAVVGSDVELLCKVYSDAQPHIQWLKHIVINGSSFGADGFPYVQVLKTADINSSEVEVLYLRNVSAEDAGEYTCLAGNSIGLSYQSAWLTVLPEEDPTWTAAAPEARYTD
The data set is described as above. The following applies: protein: recombinant; tags: IgG1 Fc fusion; antiparallel G-quadruplex-like fold.

Data set [7] addresses FGFR3b extracellular domain-Fc (human, UniProt P22607-2 23-377). The description is as above. The following applies: protein: recombinant; tags: IgG1 Fc fusion; antiparallel G-quadruplex-like fold.
For data set [8], the target named is FGFR2b extracellular domain-Fc (human, UniProt P21802-3 22-378). The description is as above. The following applies: protein: recombinant; tags: IgG1 Fc fusion; antiparallel G-quadruplex-like fold.
The target in data set [9] is FGFR1c extracellular domain-Fc;FGF1 (human;human, UniProt P11362-1;P05230 22-376;16-155, |). Nature of the data set: BLI; preformed FGF1:FGFR1c complex; 250 nM each; BLI (Octet K2, protein A sensor, FGFR-Fc 5 ug/mL), VZ23 31.25-500 nM in PBS (8.1 mM Na2HPO4, 1.5 mM NaH2PO4, 137 mM NaCl, 2.7 mM KCl as given for NMR) with or without 2 mM MgCl2; pH 7.3 (stated for CD); temperature not stated. The following applies: protein: recombinant;commercial; tags: IgG1 Fc fusion;; antiparallel G-quadruplex-like fold.
Sequence of FGFR1c extracellular domain-Fc;FGF1 (P11362 22-376, chain 1 of 2): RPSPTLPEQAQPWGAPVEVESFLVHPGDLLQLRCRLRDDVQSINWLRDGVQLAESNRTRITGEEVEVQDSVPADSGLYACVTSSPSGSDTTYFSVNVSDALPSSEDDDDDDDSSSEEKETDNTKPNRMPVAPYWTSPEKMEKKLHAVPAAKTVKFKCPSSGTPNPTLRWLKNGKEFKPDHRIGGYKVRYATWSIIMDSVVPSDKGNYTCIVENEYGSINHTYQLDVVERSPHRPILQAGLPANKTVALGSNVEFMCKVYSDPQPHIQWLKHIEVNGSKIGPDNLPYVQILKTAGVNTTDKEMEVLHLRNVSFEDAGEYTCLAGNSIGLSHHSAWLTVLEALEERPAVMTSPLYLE
Sequence of FGFR1c extracellular domain-Fc;FGF1 (P05230 16-155, chain 2 of 2): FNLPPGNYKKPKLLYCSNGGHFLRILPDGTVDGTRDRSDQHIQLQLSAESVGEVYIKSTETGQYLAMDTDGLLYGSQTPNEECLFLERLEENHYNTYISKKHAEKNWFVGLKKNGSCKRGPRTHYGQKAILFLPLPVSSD

Sequence of FGFR1b extracellular domain-Fc (human) (P11362 whole entry, the tested form may be a part): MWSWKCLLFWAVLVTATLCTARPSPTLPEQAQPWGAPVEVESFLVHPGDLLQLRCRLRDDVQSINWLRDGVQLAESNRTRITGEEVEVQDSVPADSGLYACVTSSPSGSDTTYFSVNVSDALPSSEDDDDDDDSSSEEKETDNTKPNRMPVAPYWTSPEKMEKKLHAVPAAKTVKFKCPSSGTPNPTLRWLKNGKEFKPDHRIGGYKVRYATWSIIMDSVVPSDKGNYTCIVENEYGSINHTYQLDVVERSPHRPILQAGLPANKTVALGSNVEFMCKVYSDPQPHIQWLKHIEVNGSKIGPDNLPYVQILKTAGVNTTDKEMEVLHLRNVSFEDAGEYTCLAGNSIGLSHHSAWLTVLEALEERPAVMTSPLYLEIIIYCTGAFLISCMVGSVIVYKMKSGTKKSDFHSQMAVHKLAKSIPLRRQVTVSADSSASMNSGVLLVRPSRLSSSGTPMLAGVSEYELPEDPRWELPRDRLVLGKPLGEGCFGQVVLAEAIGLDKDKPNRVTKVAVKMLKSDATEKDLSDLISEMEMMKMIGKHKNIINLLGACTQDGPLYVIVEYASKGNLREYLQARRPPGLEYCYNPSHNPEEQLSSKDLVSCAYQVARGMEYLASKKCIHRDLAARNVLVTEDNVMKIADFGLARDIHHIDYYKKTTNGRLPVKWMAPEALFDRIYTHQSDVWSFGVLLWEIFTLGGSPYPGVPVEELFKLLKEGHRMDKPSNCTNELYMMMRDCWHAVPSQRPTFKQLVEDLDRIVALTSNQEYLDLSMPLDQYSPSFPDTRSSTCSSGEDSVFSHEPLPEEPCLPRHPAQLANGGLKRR
T1 sequence (P11362 22-376): as the sequence (P11362 22-376, chain 1 of 2) above
Sequence of FGFR2c extracellular domain-Fc (P21802 22-377): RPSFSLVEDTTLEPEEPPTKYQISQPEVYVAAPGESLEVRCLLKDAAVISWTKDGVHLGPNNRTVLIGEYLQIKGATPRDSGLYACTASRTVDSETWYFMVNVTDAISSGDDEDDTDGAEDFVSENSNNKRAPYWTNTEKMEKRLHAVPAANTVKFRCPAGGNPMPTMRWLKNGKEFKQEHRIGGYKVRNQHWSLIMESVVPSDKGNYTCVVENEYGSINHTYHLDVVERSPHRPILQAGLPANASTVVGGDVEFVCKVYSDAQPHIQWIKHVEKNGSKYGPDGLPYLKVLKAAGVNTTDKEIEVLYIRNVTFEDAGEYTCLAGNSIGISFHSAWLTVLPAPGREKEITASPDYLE
Sequence of FGFR3c extracellular domain-Fc (P22607 23-375): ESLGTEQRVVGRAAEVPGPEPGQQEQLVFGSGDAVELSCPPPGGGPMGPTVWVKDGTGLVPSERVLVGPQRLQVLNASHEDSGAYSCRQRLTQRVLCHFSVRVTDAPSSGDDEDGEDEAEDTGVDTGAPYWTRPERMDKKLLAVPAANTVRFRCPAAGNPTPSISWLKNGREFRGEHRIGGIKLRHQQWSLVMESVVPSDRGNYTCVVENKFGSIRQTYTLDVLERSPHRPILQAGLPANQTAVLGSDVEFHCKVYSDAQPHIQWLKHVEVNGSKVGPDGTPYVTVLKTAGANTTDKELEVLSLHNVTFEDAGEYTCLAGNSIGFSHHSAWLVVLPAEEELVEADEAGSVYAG
Sequence of FGFR3b extracellular domain-Fc (P22607 other isoform, or with tags, fused parts or gaps): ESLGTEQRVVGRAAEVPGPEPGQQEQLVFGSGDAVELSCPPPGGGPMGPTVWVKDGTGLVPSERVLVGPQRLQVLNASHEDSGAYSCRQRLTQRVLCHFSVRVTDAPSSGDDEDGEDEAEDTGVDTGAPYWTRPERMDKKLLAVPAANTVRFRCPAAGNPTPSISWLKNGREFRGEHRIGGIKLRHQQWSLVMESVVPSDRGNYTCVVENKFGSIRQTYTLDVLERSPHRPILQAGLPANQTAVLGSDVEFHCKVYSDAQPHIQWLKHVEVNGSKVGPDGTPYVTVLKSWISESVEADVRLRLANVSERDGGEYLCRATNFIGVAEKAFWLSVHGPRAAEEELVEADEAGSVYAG
Sequence of FGFR2b extracellular domain-Fc (P21802 other isoform, or with tags, fused parts or gaps): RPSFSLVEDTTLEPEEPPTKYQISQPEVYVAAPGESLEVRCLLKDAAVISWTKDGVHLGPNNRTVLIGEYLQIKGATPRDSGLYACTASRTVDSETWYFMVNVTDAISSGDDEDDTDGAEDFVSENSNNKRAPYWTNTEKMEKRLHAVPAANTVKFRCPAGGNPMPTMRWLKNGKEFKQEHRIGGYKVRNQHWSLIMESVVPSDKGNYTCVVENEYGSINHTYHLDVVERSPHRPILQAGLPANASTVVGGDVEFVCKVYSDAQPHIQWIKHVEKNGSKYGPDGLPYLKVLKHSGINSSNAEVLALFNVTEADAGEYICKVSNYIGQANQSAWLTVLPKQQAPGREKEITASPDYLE

Consider “GGGATACAGGGCTTTGTCTATGGTGTGGATGGCGGATACC [VZ23]”, for which the Kd was found to be 29.8 nM in data set [1] (2 mM Mg2+) and 54.6 nM in data set [1] (PBS, no Mg2+).

On to GGGATACAGGGCTTTGTCTATGGTGTGGATGGCGGATACC (structured_DNA) [VZ23], for which the Kd came to 65.4 ± 5.5 nM in data set [2] and 162 ± 48.7 nM in [3]. Besides, the binding result in data set [4] is on record as “no binding”; in data set [5], “no binding”; in data set [6], “no binding”; in data set [7] it was “no binding”; in data set [8], “no binding”; in data set [9], “binds”.

Usually Kd stands for the concentration at which binding is half-saturated.
